Results published in patent US5851983A, “Elastase inhibitory polypeptide and process for production thereof by recombinant gene technology” (Teijin Limited, priority 1987, dated 1998).

Key:
[1] = target: T1, polymorphonuclear leucocyte elastase from human sputum (Homo sapiens, UniProt P08246); assay: Simultaneous treatment with healthy human saliva and elastase (Examples 28, 29); type: in vitro ADME; conditions: 37° C.
T1 construct: Polymorphonuclear leukocyte elastase from human sputum (EPC Co; Funakoshi Yakuhin); purchased EPC Co. (via Funakoshi Yakuhin); host or cells: human sputum
T1 sequence (P08246 30-267): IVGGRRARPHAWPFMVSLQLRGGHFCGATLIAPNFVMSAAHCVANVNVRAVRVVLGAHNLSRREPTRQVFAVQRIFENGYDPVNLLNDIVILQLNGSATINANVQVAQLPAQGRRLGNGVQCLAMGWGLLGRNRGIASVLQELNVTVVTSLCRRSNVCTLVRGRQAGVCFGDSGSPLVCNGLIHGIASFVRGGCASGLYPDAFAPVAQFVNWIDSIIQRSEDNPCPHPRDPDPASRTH
Experimental: (1) Healthy human saliva was ultra-filtered through a 0.22 μm filter (Millex GS, Millipore), and to the filtered saliva were added SLPI and polymorphonuclear leucocyte elastase from human sputum (EPC, Funakoshi Yakuhin) to a final concentration of 50 μM respectively. The mixture was incubated at 37° C., samples were taken as time elapsed, and analyzed by SDS-PAGE as described in Example 27.
(2) Next, the band J was transferred to a membrane as described in Example 27, and N-terminal amino acid sequence was analyzed.
(1) According to the same procedure as described in Example 28, to healthy human saliva were dissolved SLPI and polymorphonuclear leucocyte elastase from human sputum to final concentrations of 50 μM and 100 μM respectively, and the mixture was incubated at 37° C. Samples were taken as time elapsed, and analyzed by SDS-PAGE.
(2) Next, N-terminal amino acid sequence of the band M was analyzed as described in Example 27.

Human plasma thrombin = target: T2, Human plasma thrombin (Homo sapiens, UniProt P00734); assay: Assay for thrombin inhibitory activity (Example 36); type: biochemical; conditions: final concentration up to ×10^-5 M; enzyme 3 × 10^-9 M
T2 construct: (5) Human plasma thrombin (Kabi, Daiichi Kagaku Yakuhin); purchased Kabi (via Daiichi Kagaku Yakuhin); host or cells: human plasma
Experimental: F. Human plasma thrombin (Sigma)
Thrombin and FXa: 50 mM Tris-HCl, 7.5 mM EDTA-2Na, 175 mM NaCl (pH 8.4) […]
(§1) Substrate solution: for the enzymes F, G, H and I, the following substrate f, g, h or i, respectively, was dissolved to a final concentration shown in Table 24.
f. H.D-Phe-Pip-Arg-pNA (Kabi Vitrum)
(§2) To wells of an ELISA 96-well microtiter plate, were added a solution of (Arg^58 -Ala^107) SLPI obtained in Example 34 and then the enzyme solution, and the mixture was incubated at 37° C. for 10 minutes. Next, the substrate solution was added to develop the color, whose absorption was then measured at 405 nm. As a control, SLPI was used.

Human plasma plasmin [2] = target: T3, Human plasma plasmin (Homo sapiens, UniProt P00747); assay: Assay for plasmin inhibitory activity (Example 25); type: biochemical; conditions: final concentration up to ×10^-5 M; enzyme 1.0 × 10^-7 M
T3 construct: (6) Human plasma plasmin (Kabi, Daiichi Kagaku Yakuhin); purchased Kabi (via Daiichi Kagaku Yakuhin); host or cells: human plasma
Experimental: (§3) G. Human plasma plasmin (sigma)
(§4) Plasmin: 50 mM Tris-HCl, 100 mM NaCl (pH 7.4) […]
(§5) Substrate solution: for the enzymes F, G, H and I, the following substrate f, g, h or i, respectively, was dissolved to a final concentration shown in Table 14.
(§6) g. H.D-Val-Leu-Lys-pNA (Kabi Vitrum)
(§7) To wells of an ELISA 96-well microtiter plate, were added a solution of (Arg^59 -Ala^107) SLPI obtained in Example 23 and then the enzyme solution, and the mixture was incubated at 37° C. for 10 minutes. Next, the substrate solution was added to develop the color, whose absorption was then measured at 405 nm. As a control, SLPI was used.

Porcine FXa = assay: Assay for Fxa inhibitory activity (Example 25); type: biochemical; conditions: final concentration up to ×10^-5 M; enzyme 1.0 × 10^-8 M
Experimental: I. Porcine FXa (Daichi Seiyaku)
Buffer: Buffer solution for each enzyme is as follow. Thrombin and FXa: 50 mM Tris-HCl, 7.5 mM EDTA-2Na, 175 mM NaCl (pH 8.4) […]
as §5
i. Ratio 1:1 mixture of the following compounds: [drawing 5]
as §7

Human plasma plasmin [3] = target: T3, Human plasma plasmin; assay: Assay for plasmin inhibitory activity (Example 36); type: biochemical; conditions: final concentration up to ×10^-5 M; enzyme 1.0 × 10^-7 M
Experimental: as §3, §4, §1, §6, §2

[4] = target: T1, polymorphonuclear leucocyte elastase from human sputum; assay: Assay for elastase inhibitor activity (Example 24); type: biochemical; conditions: enzyme 2 × 10^-8 M, substrate 3.0 × 10^-4 M
Experimental: (§8) The following assay method was used.
(§9) Buffer: 0.1M (2-hydroxyethyl)piperazine-N'-2-ethansulfonic acid (HEPES), 0.5M NaCl, pH 7.5.
(§10) Enzyme concentration: the following enzyme was dissolved in the above-mentioned buffer to a concentration 9 times that shown in Table 12.
A. Polymorphonuclear leucocyte elastase from human sputum (EPC Co., Funakoshi Yakuhin)
Substrate solution: for the enzymes A, B, C, D and E, the following substrate a, b, c, d or e, respectively, was dissolved in a solution of DMSO+the above-mentioned buffer (1:9) (note, final concentration of DMSO was 10% in the buffer) to a concentration of 9 times that shown in Table 12.
a. MeO-Suc-Ala-Ala-Pro-Val-pNA (Bachem) […]
(§11) To wells of an ELISA 96-well microtiter plate, were added 120 μl of the buffer and the 20 μl of a sample solution of (Arg^59 -Ala^107) SLPI obtained in Example 23, followed by 20 μl of the enzyme solution. The mixture was reacted at 37° C. for 10 minutes. Next, 20 μl of the substrate was added, and developed at 37° C. The developed color was measured by absorption at 405 nm.
(§12) As a control the same procedure was carried out using SLPI.

Bovine spleen trypsin = target: T4, Bovine spleen trypsin (Bos taurus, UniProt P00760); assay: Assay for trypsin inhibitor activity (Example 24); type: biochemical; conditions: enzyme 2 × 10^-7 M, substrate 1.0 × 10^-3 M
T4 construct: purchased Sigma
T4 sequence (P00760 24-246): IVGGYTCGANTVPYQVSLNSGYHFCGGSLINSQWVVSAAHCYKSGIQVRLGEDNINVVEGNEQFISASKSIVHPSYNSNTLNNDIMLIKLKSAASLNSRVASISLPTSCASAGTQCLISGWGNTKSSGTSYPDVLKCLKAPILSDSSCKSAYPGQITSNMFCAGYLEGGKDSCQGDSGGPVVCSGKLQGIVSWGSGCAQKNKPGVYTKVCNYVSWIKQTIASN
Experimental: as §8, §9, §10
B. Bovine spleen trypsin (Sigma)
Substrate solution: for the enzymes A, B, C, D and E, the following substrate a, b, c, d or e, respectively, was dissolved in a solution of DMSO+the above-mentioned buffer (1:9) (note, final concentration of DMSO was 10% in the buffer) to a concentration of 9 times that shown in Table 12. […]
as §11, §12

T3 sequence (P00747 581-810 limits assumed): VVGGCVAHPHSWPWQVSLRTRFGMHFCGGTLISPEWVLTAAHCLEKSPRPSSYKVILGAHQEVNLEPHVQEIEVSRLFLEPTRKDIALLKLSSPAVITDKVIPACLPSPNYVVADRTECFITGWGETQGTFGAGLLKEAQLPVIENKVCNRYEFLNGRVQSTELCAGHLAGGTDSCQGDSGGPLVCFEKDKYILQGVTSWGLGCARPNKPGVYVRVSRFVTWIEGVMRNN
T3 sequence (P00747 97-580 partner limits assumed): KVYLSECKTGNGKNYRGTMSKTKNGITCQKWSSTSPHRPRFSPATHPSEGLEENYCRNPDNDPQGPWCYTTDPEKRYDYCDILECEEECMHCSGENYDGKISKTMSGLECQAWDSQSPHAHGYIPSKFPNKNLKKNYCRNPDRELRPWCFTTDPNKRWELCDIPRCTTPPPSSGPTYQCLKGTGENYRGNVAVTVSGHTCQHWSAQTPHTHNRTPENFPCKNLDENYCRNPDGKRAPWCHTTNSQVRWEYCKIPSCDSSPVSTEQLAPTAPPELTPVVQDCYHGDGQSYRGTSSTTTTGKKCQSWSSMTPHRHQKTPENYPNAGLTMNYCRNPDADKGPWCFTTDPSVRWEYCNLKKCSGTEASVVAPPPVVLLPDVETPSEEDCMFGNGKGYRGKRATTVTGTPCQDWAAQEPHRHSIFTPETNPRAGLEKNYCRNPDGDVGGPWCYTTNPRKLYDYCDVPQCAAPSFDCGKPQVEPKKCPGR

B1: SLPI: Human secretory leukoprotease inhibitor; recombinant SLPI of Reference Example 1 used as control (protein)
chain: SGKSFKAGVCPPKKSAQCLRYKKPECQSDWQCPGKKRCCPDTCGIKCLDPVDTPNPTRRKPGKCPVTYGQCLMLNPPNFCEMDGQCKRDLKCCMGMCGKSCVSPVKA
With B1 the “SDS-PAGE bands on simultaneous treatment with healthy human saliva and elastase” value ([1]; 50 μM polypeptide, elastase 50 μM (Example 28) or 100 μM (Example 29)) was “after 96 hours, a new band J with a molecular weight of about 5,500 appeared”, the “cleavage site on simultaneous treatment with healthy human saliva and elastase” value ([1]; N-terminal sequencing of SDS-PAGE band) was “cleaved at the site between Thr^57 -Arg^58” and the “inhibitory activity to thrombin” value (Human plasma thrombin) was “did not exhibit inhibitory activity”. The “inhibitory activity to plasmin” value (Human plasma plasmin [2]) was “did not exhibit inhibitory activity”, the “inhibitory activity to FXa” value (Porcine FXa) was “did not exhibit inhibitory activity” and the “inhibitory activity to plasmin” value (Human plasma plasmin [3]) was “did not exhibit inhibitory activity”. It also gave an IC50 [4] of 13 nM and an IC50 (Bovine spleen trypsin) of 330 nM.
